# Assay results as given in patent US5721133.
# How the values were obtained:
# [1] = biological target: hybrid regulatory protein encoded by plasmid p1009 (GAL4 residues 1-147, functional wild-type Coxsackievirus 3C protease linker, GAL4 residues 768-881) (yeast S. cerevisiae; Coxsackievirus (CVB3)) (UniProt P03313)
# [2] = biological target: hybrid regulatory protein encoded by plasmid pHP236 (GAL4 residues 1-147, functional HIV-1 protease linker, GAL4 residues 768-881) (yeast S. cerevisiae; HIV-1 (λHXB-2 subclone)) (UniProt P04585)
substance,measurement,setting,value
"hybrid regulatory protein encoded by plasmid p1009 (GAL4 residues 1-147, functional wild-type Coxsackievirus 3C protease linker, GAL4 residues 768-881) (from UniProt P03313) (enzyme)","β-Galactosidase Activity (MUG units), GAL1-lacZ reporter in yeast GGY1::171",[1],14 MUG units
"hybrid regulatory protein encoded by plasmid pHP236 (GAL4 residues 1-147, functional HIV-1 protease linker, GAL4 residues 768-881) (from UniProt P04585) (enzyme)","β-Galactosidase Activity (MUG units), GAL1-lacZ reporter in yeast GGY1::171",[2],68 MUG units
